Source: PMC7677223 (Nature microbiology, 2020)

B1: VZV small capsid protein (SCP) pORF23 (natural protein)
chain: MTQPASSRVVFDPSNPTTFSVEAIAAYTPVALIRLLNASGPLQPGHRVDIADARSIYTVGAAASAARARANHNANTIRRTAMFAETDPMTWLRPTVGLKRTFNPRIIRPQPPNPSMSLGISGPTILPQKTQSADQSALQQPAALAFSGSSPQHPPPQTTSASVGQQQHVVSGSSGQQPQQGAQSSTVQPTTGSPPAAQGVPQSTPPPTQNTPQGGKGQTLSHTGQSGNASRSRRV

Legend:
[1] = target: VZV capsid (MCP pORF40, SCP pORF23, Tri1 pORF20, Tri2 pORF41) (varicella-zoster virus (P-Oka strain)) (UniProt P09245); assay: cryo-EM structure
[2] = target: the molecule itself; assay: cryo-EM structure

VZV capsid (MCP pORF40, SCP pORF23, Tri1 pORF20, Tri2 pORF41) (varicella-zoster virus (P-Oka strain)), sequence (P09245 whole entry, looked up): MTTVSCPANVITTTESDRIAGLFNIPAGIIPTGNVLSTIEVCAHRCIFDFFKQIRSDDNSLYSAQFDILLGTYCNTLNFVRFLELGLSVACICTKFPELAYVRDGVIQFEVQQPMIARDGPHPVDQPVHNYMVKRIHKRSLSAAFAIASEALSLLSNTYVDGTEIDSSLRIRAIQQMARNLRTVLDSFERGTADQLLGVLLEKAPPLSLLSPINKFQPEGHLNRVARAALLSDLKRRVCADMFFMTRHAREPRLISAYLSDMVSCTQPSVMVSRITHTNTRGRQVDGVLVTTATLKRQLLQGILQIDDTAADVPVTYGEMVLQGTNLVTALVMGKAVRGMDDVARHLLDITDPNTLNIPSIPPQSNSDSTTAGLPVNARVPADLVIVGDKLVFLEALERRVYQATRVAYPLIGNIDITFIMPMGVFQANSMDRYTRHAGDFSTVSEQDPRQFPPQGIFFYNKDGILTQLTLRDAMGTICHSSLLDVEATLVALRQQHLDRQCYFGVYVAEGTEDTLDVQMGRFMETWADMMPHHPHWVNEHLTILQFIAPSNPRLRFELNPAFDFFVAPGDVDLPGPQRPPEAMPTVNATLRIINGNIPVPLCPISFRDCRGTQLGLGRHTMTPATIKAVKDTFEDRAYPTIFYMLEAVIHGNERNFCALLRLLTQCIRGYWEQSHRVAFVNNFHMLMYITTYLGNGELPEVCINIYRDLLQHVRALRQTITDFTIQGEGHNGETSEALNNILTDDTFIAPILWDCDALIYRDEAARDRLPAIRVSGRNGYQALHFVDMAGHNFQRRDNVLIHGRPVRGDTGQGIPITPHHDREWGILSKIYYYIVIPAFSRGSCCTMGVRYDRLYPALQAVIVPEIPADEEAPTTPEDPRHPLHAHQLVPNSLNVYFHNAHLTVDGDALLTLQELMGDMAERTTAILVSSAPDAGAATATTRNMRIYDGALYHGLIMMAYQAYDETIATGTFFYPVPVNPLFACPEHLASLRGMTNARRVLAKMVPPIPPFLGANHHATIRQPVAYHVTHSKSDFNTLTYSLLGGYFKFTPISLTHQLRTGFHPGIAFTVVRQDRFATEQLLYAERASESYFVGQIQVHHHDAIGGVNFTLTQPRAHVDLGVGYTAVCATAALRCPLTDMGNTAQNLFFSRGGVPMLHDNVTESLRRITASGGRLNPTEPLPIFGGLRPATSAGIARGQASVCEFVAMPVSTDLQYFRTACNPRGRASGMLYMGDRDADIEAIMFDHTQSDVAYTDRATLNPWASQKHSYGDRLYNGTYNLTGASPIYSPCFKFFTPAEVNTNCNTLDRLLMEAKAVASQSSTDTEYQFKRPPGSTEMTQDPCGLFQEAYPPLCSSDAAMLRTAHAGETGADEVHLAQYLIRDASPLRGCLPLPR

Molecule	percent of pentons bound with CATCs [1]	stoichiometry N [2]
VZV capsid-associated tegument complex (CATC)	50.5%	
B1		6
